Data reported in article PMC4756840, “The RNA-binding protein LARP1 is a post-transcriptional regulator of survival and tumorigenesis in ovarian cancer”.

Columns and labels:
[1] = biological target: T1, LARP1 full length (UniProt Q6PKG0-3 1-1019); assay: EMSA; judged non-specific; Kd only in figure; 20 mM Tris-HCl pH 8, 150 mM NaCl, 10% glycerol, 1 mM DTT, 1 ug BSA, 0.5 ug tRNA, RNA <2 nM, 30 min on ice; native PAGE at 4 C; details: protein: recombinant; tags: N-terminal 6xHis-MBP, removed by TEV cleavage; label: 5'-32P
[2] = biological target: T1, LARP1 full length; assay: EMSA; tRNA and BSA present; Kd only in figure; 20 mM Tris-HCl pH 8, 150 mM NaCl, 10% glycerol, 1 mM DTT, 1 ug BSA, 0.5 ug tRNA, RNA <2 nM, 30 min on ice; native PAGE at 4 C; details: protein: recombinant; tags: N-terminal 6xHis-MBP, removed by TEV cleavage; label: 5'-32P in direct EMSA
[3] = biological target: T1, LARP1 full length; assay: competition; vs 32P-RPS6, 1-30 uM cold RNA; 20 mM Tris-HCl pH 8, 150 mM NaCl, 10% glycerol, 1 mM DTT, 1 ug BSA, 0.5 ug tRNA, RNA <2 nM, 30 min on ice; native PAGE at 4 C; details: protein: recombinant; tags: N-terminal 6xHis-MBP, removed by TEV cleavage; label: 5'-32P in direct EMSA

| Binder | binding signal [1] | other results |
| --- | --- | --- |
| BCL2 3' UTR construct 4 (ssRNA) RNA: GCCCUCCAGAUAGCUCAUUUCAUUAAGUUUUUCCCUCCAAGGUAGAAUUUGCAAGAGUGACAGUGGAUUGCAUUUCUUUUGGGGAAGCUUUCUUUUGGUGGUUUUGUUUAUUAUACCUUCUUAAGUUUUCAACCAAGGUUUGCUUUUGUU | ~0.25 affinity relative to BCL2 construct 3 | – |
| BCL2 3' UTR construct 3 (ssRNA) RNA: GCCUGUUUUGUCUUUUGUUGUUGUUCAAACGGGAUUCACAGAGUAUUUGAAAAAUGUAUAUAUAUUAAGAGGUCACGGGGGCUAAUUGCUGGCUGGCUGCCUUUUGCUGUGGGGUUUUGUU | – | binding signal [2]: ~4 fold higher affinity than other BCL2 constructs |
| BCL2 3' UTR construct 2 (ssRNA) RNA: GCCCUCCUGCCCUCCUUCCGCGGGGGCUUUCUCAUGGCUGUCCUUCAGGGUCUUCCUGAAAUGCAGUGGUGCUUACGCUCCACCAAGAAAGCAGGAAACCUGUGGUAUGAAGCCAGACCUCCCCGG | ~0.25 affinity relative to BCL2 construct 3 | – |
| OAZ1 3' UTR (ssRNA) RNA: GGCCGCCUCGGGGCUGGGCAUCCGGCCCCUGGGGCCACCCCUUGUCAGCCGGGUGGGUAGGAACCGUAGACUCGCUCAUCUCGCCUGGGUUUGUCCGCAUGUUG | – | binding result [3]: no binding |
| BCL2 3' UTR construct 1 (ssRNA) RNA: GGCUCCACCUGGAUGUUCUGUGCCUGUAAACAUAGAUUCGCUUUCCAUGUUGUUGGCCGGAUCACCAUCUGAAGAGCAGACGGAUGGAAAAAGGACCUGAUCAUUGGGGAAGCUGGCUUUCUGGCUGCUGGAGGCUGGGGAGAAGGUGUUCAUUCACUUGCAUUUCUUUGCCCUGGG | ~0.25 affinity relative to BCL2 construct 3 | – |
